Target: T1, full-length human OX40 expressed on HuT78 cells (HuT78/OX40) (human, UniProt P43489 29-277)
T1 sequence: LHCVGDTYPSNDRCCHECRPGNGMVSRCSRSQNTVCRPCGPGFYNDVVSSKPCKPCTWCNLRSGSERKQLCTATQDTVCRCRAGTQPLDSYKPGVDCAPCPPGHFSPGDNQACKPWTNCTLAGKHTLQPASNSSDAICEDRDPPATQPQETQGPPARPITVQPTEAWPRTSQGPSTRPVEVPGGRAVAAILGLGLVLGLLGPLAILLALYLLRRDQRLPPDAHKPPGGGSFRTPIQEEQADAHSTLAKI
Assay: cell-based or functional assay

B1: 445-3 (antibody, human IgG1, V domains shown)
VH: QVQLVQSGAEVKKPGSSVKVSCKASGYKFTSYIIHWVRQAPGQGLEWMGYINPYNEGTRYNQKFQGRVTLTADKSTSTAYMELSSLRSEDTAVYYCARGYYGSSYAMDYWGQGTTVTVSS
VL: DIQMTQSPSSLSASVGDRVTITCRASQGISNYLNWYQQKPDGAIKLLIYDASTLYSGVPSRFSGSGSGTDFTLTISSLQPEDFATYYCQQYSKLPYTFGGGTKVEIK
ADCC (LDH release), NK92MI/CD16V effector cells, HuT78/OX40 target cells (EC50): 27 ng/mL | IL-2 production by HuT78/OX40 cells co-cultured with HEK293/OS8Low-FcγRI cells (EC50): 0.06 ng/mL
